This note sets out measurements from paper doi:10.1101/2025.07.24.666634 (bioRxiv, 2025).

This series deals with the molecule itself. Nature of the series: cryo-EM structure; blot-and-plunge, dGTPase 3 mg/mL on UltrAuFoil R1.2/1.3 Au300; single-particle analysis, D3 symmetry.

B1: Escherichia coli dGTP Triphosphohydrolase (enzyme, UniProt P15723 1-505, looked up)
chain: MAQIDFRKKINWHRRYRSPQGVKTEHEILRIFESDRGRIINSPAIRRLQQKTQVFPLERNAAVRTRLTHSMEVQQVGRYIAKEILSRLKELKLLEAYGLDELTGPFESIVEMSCLMHDIGNPPFGHFGEAAINDWFRQRLHPEDAESQPLTDDRCSVAALRLRDGEEPLNELRRKIRQDLCHFEGNAQGIRLVHTLMRMNLTWAQVGGILKYTRPAWWRGETPETHHYLMKKPGYYLSEEAYIARLRKELNLALYSRFPLTWIMEAADDISYCVADLEDAVEKRIFTVEQLYHHLHEAWGQHEKGSLFSLVVENAWEKSRSNSLSRSTEDQFFMYLRVNTLNKLVPYAAQRFIDNLPAIFAGTFNHALLEDASECSDLLKLYKNVAVKHVFSHPDVERLELQGYRVISGLLEIYRPLLSLSLSDFTELVEKERVKRFPIESRLFHKLSTRHRLAYVEAVSKLPSDSPEFPLWEYYYRCRLLQDYISGMTDLYAWDEYRRLMAVEQ
notes: also called dGTPase; E. coli dGTPase
For B1, the binding result is “binds”.
